Measurements as given in article PMC10942606.

Assays:
Assay in all cases: MST
Pcf1_KER-PIP = target: T1, Pcf1_KER-PIP (Schizosaccharomyces pombe, UniProt Q1MTN9 56-185)
T1 sequence: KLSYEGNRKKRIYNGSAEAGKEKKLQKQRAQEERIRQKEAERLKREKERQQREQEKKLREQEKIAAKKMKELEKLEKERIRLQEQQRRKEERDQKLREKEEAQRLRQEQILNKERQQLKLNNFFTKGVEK

Pcf1-PIP*;Pcf2;Pcf3 = target: T2, Pcf1-PIP*;Pcf2;Pcf3 (Schizosaccharomyces …, UniProt Q1MTN9;O13985;Q9Y825 1-544;1-512;1-408, Q172A;L175A;F178A;F179A||)
T2 sequence 1: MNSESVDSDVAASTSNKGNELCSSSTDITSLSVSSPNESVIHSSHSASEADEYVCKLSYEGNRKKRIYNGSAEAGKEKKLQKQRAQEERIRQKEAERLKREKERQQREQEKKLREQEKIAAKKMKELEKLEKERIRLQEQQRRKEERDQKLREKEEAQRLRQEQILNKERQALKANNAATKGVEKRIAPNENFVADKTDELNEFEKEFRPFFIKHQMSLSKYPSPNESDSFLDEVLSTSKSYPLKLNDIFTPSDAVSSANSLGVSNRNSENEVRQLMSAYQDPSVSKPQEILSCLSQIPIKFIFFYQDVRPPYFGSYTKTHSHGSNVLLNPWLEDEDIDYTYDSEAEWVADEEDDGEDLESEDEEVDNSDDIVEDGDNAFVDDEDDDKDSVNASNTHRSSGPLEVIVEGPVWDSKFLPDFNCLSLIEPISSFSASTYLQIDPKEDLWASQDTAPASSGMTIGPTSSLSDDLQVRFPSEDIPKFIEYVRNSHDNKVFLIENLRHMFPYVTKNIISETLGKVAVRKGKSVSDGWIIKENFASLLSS
T2 sequence 2: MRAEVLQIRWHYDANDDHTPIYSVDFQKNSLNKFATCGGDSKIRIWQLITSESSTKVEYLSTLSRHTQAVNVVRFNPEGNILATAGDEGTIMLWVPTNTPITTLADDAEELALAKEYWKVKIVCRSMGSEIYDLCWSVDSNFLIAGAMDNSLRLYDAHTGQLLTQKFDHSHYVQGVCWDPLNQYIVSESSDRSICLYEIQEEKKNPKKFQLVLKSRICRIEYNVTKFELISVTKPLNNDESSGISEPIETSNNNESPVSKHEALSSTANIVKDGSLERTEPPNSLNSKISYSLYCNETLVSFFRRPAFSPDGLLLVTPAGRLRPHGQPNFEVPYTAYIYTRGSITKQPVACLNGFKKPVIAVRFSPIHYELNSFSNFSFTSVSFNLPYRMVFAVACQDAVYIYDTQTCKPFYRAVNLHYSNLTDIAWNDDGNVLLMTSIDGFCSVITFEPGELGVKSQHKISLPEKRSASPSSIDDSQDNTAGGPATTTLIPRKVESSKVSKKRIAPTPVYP
T2 sequence 3: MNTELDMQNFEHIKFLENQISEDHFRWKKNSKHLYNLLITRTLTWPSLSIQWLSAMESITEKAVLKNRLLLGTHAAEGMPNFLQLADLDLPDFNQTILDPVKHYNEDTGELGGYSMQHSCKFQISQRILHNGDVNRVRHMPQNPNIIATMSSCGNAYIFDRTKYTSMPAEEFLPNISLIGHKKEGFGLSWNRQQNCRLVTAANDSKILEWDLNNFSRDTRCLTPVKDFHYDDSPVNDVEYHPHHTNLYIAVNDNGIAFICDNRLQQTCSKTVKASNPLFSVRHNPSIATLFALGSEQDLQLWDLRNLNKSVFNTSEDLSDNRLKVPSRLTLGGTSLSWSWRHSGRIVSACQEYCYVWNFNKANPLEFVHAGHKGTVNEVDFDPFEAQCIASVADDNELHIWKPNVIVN

Pcf1_WHD = target: T3, Pcf1_WHD (Schizosaccharomyces pombe, UniProt Q1MTN9 471-544)
T3 sequence: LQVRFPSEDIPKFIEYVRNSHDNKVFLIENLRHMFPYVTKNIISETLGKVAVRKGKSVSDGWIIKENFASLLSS

Pcf1-KER*;Pcf2;Pcf3 = target: T4, Pcf1-KER*;Pcf2;Pcf3 (Schizosaccharomyces …, UniProt Q1MTN9;O13985;Q9Y825 1-544;1-512;1-408, R147E;K150E;K154E;R161E;K168E||)
T4 sequence 1: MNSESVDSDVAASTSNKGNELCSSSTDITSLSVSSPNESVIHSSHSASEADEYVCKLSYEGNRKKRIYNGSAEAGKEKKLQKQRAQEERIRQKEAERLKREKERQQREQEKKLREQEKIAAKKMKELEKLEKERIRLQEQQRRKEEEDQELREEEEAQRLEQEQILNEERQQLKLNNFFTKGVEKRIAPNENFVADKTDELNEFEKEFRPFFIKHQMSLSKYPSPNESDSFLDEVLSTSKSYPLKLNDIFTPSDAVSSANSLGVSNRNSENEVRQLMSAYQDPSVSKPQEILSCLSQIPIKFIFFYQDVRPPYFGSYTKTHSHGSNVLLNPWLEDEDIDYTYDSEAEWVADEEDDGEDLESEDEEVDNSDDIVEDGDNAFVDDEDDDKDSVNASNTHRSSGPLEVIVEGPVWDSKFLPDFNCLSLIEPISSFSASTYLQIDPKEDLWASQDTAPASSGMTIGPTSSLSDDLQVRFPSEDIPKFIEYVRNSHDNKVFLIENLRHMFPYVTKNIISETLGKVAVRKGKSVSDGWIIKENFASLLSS
T4 sequence 2: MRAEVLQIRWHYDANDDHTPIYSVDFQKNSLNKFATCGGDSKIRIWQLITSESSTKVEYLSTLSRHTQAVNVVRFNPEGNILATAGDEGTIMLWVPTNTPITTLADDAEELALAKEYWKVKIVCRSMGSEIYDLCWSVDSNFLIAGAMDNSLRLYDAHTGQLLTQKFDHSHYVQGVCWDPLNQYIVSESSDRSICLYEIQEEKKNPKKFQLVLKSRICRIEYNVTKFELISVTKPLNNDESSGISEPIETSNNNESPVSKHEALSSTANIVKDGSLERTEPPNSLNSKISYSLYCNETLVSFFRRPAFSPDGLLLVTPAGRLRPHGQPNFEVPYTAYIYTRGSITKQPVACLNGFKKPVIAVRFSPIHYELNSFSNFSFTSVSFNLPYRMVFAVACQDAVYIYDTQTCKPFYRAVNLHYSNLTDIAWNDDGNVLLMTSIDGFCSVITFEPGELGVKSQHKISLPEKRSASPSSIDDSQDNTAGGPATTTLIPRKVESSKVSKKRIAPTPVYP
T4 sequence 3: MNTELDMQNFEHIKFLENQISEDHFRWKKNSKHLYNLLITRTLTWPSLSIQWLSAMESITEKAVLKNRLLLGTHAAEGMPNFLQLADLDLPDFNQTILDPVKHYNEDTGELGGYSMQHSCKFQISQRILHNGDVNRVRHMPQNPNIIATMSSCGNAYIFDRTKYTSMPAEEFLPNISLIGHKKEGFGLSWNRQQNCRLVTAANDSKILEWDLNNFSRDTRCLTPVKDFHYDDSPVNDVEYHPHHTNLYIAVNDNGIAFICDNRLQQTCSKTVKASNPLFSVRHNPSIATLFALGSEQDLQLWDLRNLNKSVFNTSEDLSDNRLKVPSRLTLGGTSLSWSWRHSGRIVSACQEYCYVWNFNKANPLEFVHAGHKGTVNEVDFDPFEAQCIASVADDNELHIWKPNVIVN

B1: 40 bp dsDNA, Alexa488 (dsDNA)
DNA 1: ATCAATATCCACCTGCAGATACTACCAAAAGTGTATTTGG
DNA 2: CCAAATACACTTTTGGTAGTATCTGCAGGTGGATATTGAT
apparent K (half saturation) (Pcf1_KER-PIP): 1900 ± 300 nM
apparent K (half saturation) (Pcf1-PIP*;Pcf2;Pcf3): 700 ± 100 nM
binding result (Pcf1_WHD): no binding
apparent K (half saturation) (Pcf1-KER*;Pcf2;Pcf3): 2800 ± 400 nM
